Measured values taken from patent US20240226314A1 (Sanofi, published 2024).

Key:
[1] = target: T1, His-tagged cynomolgus monkey TfR ectodomain (cyTFRC_89_760; mature protein) (cynomolgus monkey (Macaca fascicularis), UniProt Q5RDH6 89-760 (Pongo abelii entry)); assay: SPR, His-tagged TfR ectodomain captured on anti-His, 1:1 fit
T1 construct: also called cTfR; cTfR ectodomain
T1 chain: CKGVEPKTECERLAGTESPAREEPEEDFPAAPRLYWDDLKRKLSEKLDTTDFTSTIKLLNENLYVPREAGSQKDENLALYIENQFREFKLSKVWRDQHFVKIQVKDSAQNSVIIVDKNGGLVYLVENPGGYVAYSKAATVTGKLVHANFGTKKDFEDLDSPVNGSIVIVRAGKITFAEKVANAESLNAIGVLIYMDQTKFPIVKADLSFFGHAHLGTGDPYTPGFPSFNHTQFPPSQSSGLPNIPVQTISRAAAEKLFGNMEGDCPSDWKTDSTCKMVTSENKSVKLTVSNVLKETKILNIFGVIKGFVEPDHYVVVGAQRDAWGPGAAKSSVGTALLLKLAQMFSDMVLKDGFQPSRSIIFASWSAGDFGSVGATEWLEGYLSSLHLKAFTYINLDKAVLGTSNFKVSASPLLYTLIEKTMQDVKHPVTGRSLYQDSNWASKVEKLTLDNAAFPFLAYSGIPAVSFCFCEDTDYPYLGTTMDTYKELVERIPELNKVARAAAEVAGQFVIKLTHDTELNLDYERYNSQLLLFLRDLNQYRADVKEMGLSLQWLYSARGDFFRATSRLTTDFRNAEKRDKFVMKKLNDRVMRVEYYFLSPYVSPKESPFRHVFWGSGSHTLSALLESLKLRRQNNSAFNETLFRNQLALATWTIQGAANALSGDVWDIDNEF
Procedure: (§1) Binding of the humanized Fab variants to human, cynomolgus and mouse TfR was assessed using SPR at pH 7.4. Experiments were run on a Bruker MASS-2 instrument with HBS-EP+ as running buffer and sample diluent (Cytiva Life Sciences, #BR100826). HCA sensor chips (Bruker, #1862614) were immobilized with anti-His antibody (His capture kit, Cytiva Life Sciences, #28995056) following manufacturer's instructions. About 10,000 RU of anti-His was obtained. His-tagged hTfR ectodomain (SEQ ID NO: 39), cTfR ectodomain (SEQ ID NO: 40) or mouse TfR ectodomain (SEQ ID NO: 41) (5 μg/ml) was captured for 1 min at 10 μL/min. Concentration series of the humanized Fab variants were then injected for 4 min at 30 μL/min over hTfR surfaces and dissociation was monitored for 5 min. Surface was regenerated with one 1 min pulse of 10 mM glycine-HCl at pH 1.5.

[2] = target: T2, His-tagged human TfR ectodomain (hTFRC_89-760_G142S; mature protein) (human, UniProt P02786 89-760); assay: as above
T2 construct: It carries the G142S haplotype; also called hTfR ectodomain
Procedure: as §1

[3] = target: T1, His-tagged cynomolgus monkey TfR …; assay: SPR; KD on cTfR against KD on hTfR
Procedure: as §1

[4] = target: His-tagged mouse TfR ectodomain (mTFRC_89_764; mature protein) (mouse, UniProt Q62351 89-763); assay: SPR, His-tagged mTfR ectodomain captured on anti-His
Procedure: as §1

[5] = target: T3, cTfR expressed on 300.19 cells (SEQ ID NO: 2) (cynomolgus monkey, UniProt Q5RDH6 1-760 (Pongo abelii entry)); assay: flow cytometry; EC50 on cTfR cells against EC50 on hTfR cells
T3 construct: Murine pre-B cell line 300.19, stably transfected with a plasmid expressing cTfR; also called cynomolgus TfR; cTfR-expressing 300.19 cells
T3 chain: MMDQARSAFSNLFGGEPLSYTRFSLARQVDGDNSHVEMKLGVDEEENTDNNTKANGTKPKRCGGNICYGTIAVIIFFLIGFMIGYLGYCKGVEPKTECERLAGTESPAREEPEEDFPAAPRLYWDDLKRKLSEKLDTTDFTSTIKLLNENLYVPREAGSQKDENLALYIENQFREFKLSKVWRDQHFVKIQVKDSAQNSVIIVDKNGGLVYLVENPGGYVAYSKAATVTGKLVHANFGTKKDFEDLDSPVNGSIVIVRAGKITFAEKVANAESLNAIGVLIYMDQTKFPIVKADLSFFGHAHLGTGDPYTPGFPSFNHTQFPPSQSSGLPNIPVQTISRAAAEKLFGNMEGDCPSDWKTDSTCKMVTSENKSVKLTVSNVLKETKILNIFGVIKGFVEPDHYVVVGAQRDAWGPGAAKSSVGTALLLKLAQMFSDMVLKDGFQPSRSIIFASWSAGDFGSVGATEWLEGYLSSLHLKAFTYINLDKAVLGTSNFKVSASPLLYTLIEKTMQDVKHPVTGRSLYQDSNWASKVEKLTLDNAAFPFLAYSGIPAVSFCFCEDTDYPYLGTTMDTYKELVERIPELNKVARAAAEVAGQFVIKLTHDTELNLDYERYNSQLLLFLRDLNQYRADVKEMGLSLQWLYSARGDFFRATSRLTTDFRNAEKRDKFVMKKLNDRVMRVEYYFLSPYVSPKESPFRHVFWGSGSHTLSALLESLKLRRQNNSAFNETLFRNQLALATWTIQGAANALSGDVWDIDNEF
Procedure: (§2) The binding kinetics of the four anti-TfR-GAA molecules to hTfR-expressing 300.19 cells and cTfR-expressing 300.19 cells were determined by flow cytometry. 300.19 is a murine pre-B cell line, originating from a lymphoma, and was stably transfected by nucleoporation with a plasmid expressing either hTfR or cTfR (SEQ ID NO: 1 and SEQ ID NO: 2, respectively).
(§3) 300.19 TFRC-expressing cells were coated at 5×10⁵ cells/well on 96-well High Bind plate (MSD L15XB-3) and 100 μL/well of anti-TfR-GAA molecule were added and incubated for 45 min at 4° C. and washed three times with PBS 1% BSA. […] Antibody binding was evaluated after centrifugation and resuspension of cells by adding 200 μl/well PBS 1% BSA and read using Guava® easyCyte™ 8HT Flow Cytometry System.

[6] = target: T3, cTfR expressed on 300.19 cells (SEQ ID …); assay: flow cytometry on cTfR-expressing 300.19 cells
Procedure: as §2, §3

[7] = target: T4, hTfR expressed on 300.19 cells (SEQ ID NO: 1) (human, UniProt P02786 1-760); assay: flow cytometry on hTfR-expressing 300.19 cells
T4 construct: Murine pre-B cell line 300.19, stably transfected with a plasmid expressing hTfR; also called human TfR; hTfR-expressing 300.19 cells
Procedure: as §2, §3

Chain of His-tagged mouse TfR ectodomain (mTFRC_89_764; mature protein) (Q62351 other isoform, or with tags, fused parts or gaps): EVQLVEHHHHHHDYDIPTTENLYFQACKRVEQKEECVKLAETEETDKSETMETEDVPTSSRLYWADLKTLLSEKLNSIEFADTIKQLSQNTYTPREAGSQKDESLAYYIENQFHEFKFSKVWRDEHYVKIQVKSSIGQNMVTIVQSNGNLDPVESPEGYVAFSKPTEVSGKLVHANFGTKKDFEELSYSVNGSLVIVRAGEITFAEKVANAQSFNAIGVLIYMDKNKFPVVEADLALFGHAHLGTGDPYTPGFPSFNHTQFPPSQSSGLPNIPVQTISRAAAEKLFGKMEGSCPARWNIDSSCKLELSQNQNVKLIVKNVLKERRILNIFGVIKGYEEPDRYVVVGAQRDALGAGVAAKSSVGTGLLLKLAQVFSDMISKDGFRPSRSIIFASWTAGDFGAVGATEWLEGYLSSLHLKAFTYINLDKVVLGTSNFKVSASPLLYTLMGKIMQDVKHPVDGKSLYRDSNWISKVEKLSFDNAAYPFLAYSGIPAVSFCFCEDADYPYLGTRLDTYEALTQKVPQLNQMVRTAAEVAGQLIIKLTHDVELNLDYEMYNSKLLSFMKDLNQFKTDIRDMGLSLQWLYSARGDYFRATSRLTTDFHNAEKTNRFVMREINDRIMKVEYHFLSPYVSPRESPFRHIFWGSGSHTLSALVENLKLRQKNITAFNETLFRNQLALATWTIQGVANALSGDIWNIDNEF
T2 sequence (P02786 89-760 G142S): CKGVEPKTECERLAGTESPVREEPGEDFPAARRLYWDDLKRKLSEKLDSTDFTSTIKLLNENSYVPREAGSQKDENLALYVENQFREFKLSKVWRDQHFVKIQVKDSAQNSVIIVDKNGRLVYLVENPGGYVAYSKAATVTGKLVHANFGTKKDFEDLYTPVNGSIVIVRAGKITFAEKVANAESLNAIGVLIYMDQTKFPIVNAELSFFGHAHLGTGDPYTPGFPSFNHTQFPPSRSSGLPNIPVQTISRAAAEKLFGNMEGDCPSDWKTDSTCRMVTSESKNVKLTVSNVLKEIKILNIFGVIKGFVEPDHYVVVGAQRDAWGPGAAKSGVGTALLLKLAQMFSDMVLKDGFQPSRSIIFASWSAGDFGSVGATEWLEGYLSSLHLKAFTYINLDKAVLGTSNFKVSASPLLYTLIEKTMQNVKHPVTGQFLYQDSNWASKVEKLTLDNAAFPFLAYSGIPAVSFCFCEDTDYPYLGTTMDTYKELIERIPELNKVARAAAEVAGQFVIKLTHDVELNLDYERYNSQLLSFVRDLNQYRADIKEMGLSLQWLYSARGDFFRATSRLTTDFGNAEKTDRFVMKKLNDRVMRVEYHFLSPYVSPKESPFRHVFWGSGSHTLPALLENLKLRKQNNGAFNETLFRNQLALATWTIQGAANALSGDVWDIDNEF

B1: 531_1L2_variant3 Fab (Fab, V domains shown)
VH: EVQLLESGGGLVQPGGSLRLSCAASGYTFTRYWLNWVRQAPGKGLEWIGMIDPSVSETHYADSVKGRATLSVDKSKNTAYLQMNSLRAEDTAVYYCSQIRLPYYYAMDSWGQGTTVTVSS
VL: DIQMTQSPSSLSASVGDRVTITCRASQDINSFLNWYQQKPGKAVKLLIYYTSRLQSGVPSRFSGSGSGTDYTLTISSLQPEDFATYFCQQGNTLPRTFGGGTKVEIK
notes: Humanized Fab; The His-tag was removed with TEV protease before SPR
[1]
  Kd: 204 nM
[2]
  Kd: 183 nM
[3]
  Cynomolgus/human KD ratio: 1.1
[4]
  binding result: no binding

B2: 531_1L2_variant21 Fab (Fab, V domains shown)
VH: QVQLVQSGAEVKKPGASVKVSCKASGYTFTRYYLNWVRQAPGQGLEWIGMIDPSVSETHYAQKFQGRATLTVDKSTSTAYMELSSLRSEDTAVYYCSQIRLPYYYAMDSWGQGTTVTVSS
VL: DIQMTQSPSSLSASVGDRVTITCRASQDISSFLNWYQQKPGKAVKLLIYYTSRLQSGVPSRFSGSGSGTDYTLTISSLQPEDFATYFCQQGNTLPRTFGGGTKVEIK
notes: as for B1
[1]
  Kd: 30.9 nM
[2]
  Kd: 3.71 nM
[3]
  Cynomolgus/human KD ratio: 8.3
[4]
  binding result: no binding

B3: 531_1L2_variant17 Fab (Fab, V domains shown)
VH: QVQLVQSGAEVKKPGASVKVSCKASDYTFTRYWLNWVRQAPGQGLEWIGMIDPSVSETHYAQKFQGRATLTVDKSTSTAYMELSSLRSEDTAVYYCSQIRLPYYYAMDSWGQGTTVTVSS
VL: DIQMTQSPSSLSASVGDRVTITCRASQDISSFLNWYQQKPGKAVKLLIYYTSRLQSGVPSRFSGSGSGTDYTLTISSLQPEDFATYFCQQGNTLPRTFGGGTKVEIK
notes: as for B1
[1]
  Kd: 28.9 nM
[2]
  Kd: 5.91 nM
[3]
  Cynomolgus/human KD ratio: 4.9
[4]
  binding result: no binding

B4: 531_1L2_variant6 Fab (Fab, V domains shown)
VH: EVQLLESGGGLVQPGGSLRLSCAASGYTFTRYWLNWVRQAPGKGLEWIGMIDPSVSETHYADSVKGRATLSVDKSKNTAYLQMNSLRAEDTAVYYCSQIRLPYYYAMDSWGQGTTVTVSS
VL: DIQMTQSPSSLSASVGDRVTITCRASQDISSFLNWYQQKPGKAVKLLIYYTSRLQSGVPSRFSGSGSGTDYTLTISSLQPEDFATYFCQQGNTLPRTFGGGTKVEIK
notes: as for B1
[1]
  Kd: 300 nM
[2]
  Kd: 77.4 nM
[3]
  Cynomolgus/human KD ratio: 3.9
[4]
  binding result: no binding

B5: 531_1L2_variant4 Fab (Fab, V domains shown)
VH: EVQLLESGGGLVQPGGSLRLSCAASGYTFTRYYLNWVRQAPGKGLEWIGMIDPSVSETHYADSVKGRATLSVDKSKNTAYLQMNSLRAEDTAVYYCSQIRLPYYYAMDSWGQGTTVTVSS
VL: DIQMTQSPSSLSASVGDRVTITCRASQDINSFLNWYQQKPGKAVKLLIYYTSRLQSGVPSRFSGSGSGTDYTLTISSLQPEDFATYFCQQGNTLPRTFGGGTKVEIK
notes: as for B1
[1]
  Kd: 1210 nM
[2]
  Kd: 120 nM
[3]
  Cynomolgus/human KD ratio: 10.1
[4]
  binding result: no binding

B6: 531_1L2_variant14 Fab (Fab, V domains shown)
VH: QVQLVQSGAEVKKPGASVKVSCKASDYTFTRYWLNWVRQAPGQGLEWMGMIDPSVSETHYAQKFQGRVTMTRDTSTSTVYMELSSLRSEDTAVYYCSQIRLPYYYAMDSWGQGTTVTVSS
VL: DIQMTQSPSSLSASVGDRVTITCRASQDINSFLNWYQQKPGKAVKLLIYYTSRLQSGVPSRFSGSGSGTDYTLTISSLQPEDFATYFCQQGNTLPRTFGGGTKVEIK
notes: as for B1
[1]
  Kd: 75.1 nM
[2]
  Kd: 8.6 nM
[3]
  Cynomolgus/human KD ratio: 8.7
[4]
  binding result: no binding

B7: 531_1L2_variant24 Fab (Fab, V domains shown)
VH: QVQLVQSGAEVKKPGASVKVSCKASGYTFTRYYLNWVRQAPGQGLEWIGMIDPSVSETHYAQKFQGRATLTVDKSTSTAYMELSSLRSEDTAVYYCSQIRLPYYYAMDSWGQGTTVTVSS
VL: DIQMTQSPSSLSASVGDRVTITCRASQDISSFLNWYQQKPGKAVKLLIYYTSRLQSGVPSRFSGSGSGTDFTLTISSLQPEDFATYFCQQGNTLPRTFGGGTKVEIK
notes: as for B1
[1]
  Kd: 84.6 nM
[2]
  Kd: 10.2 nM
[3]
  Cynomolgus/human KD ratio: 8.3
[4]
  binding result: no binding

B8: 531_1L2_variant16 Fab (Fab, V domains shown)
VH: QVQLVQSGAEVKKPGASVKVSCKASGYTFTRYYLNWVRQAPGQGLEWIGMIDPSVSETHYAQKFQGRATLTVDKSTSTAYMELSSLRSEDTAVYYCSQIRLPYYYAMDSWGQGTTVTVSS
VL: DIQMTQSPSSLSASVGDRVTITCRASQDINSFLNWYQQKPGKAVKLLIYYTSRLQSGVPSRFSGSGSGTDYTLTISSLQPEDFATYFCQQGNTLPRTFGGGTKVEIK
notes: as for B1
[1]
  Kd: 70.4 nM
[2]
  Kd: 10.2 nM
[3]
  Cynomolgus/human KD ratio: 6.9
[4]
  binding result: no binding

B9: 531_1L2_variant8 Fab (Fab, V domains shown)
VH: EVQLLESGGGLVQPGGSLRLSCAASGYTFTRYYLNWVRQAPGKGLEWIGMIDPSVSETHYADSVKGRATLSVDKSKNTAYLQMNSLRAEDTAVYYCSQIRLPYYYAMDSWGQGTTVTVSS
VL: DIQMTQSPSSLSASVGDRVTITCRASQDISSFLNWYQQKPGKAVKLLIYYTSRLQSGVPSRFSGSGSGTDYTLTISSLQPEDFATYFCQQGNTLPRTFGGGTKVEIK
notes: as for B1
[1]
  Kd: 475 nM
[2]
  Kd: 61.2 nM
[3]
  Cynomolgus/human KD ratio: 7.8
[4]
  binding result: no binding

B10: anti-TfR 531v25-Fab-LC-GAA (Fab)
heavy: QVQLVQSGAEVKKPGASVKVSCKASGYTFTRYYLNWVRQAPGQGLEWIGMIDPSVSETHYAQKFQGRATLTVDKSTSTAYMELSSLRSEDTAVYYCSQIRLPYYYAMDSWGQGTTVTVSSASTKGPSVFPLAPSSKSTSGGTAALGCLVKDYFPEPVTVSWNSGALTSGVHTFPAVLQSSGLYSLSSVVTVPSSSLGTQTYICNVNHKPSNTKVDKKVEPKSC
light: not shown
notes: Fab with human GAA fused to the C-terminus of the light chain; also called 531v25Fab-GAA
[5]
  Cynomolgus/human ratio (TfR): 7.5
[6]
  EC50: 74.6 nM
[7]
  EC50: 9.9 nM
